Experimental data published in US20200332005A1.

Biological target: N-terminal of CD73
Test: plate binding assay, axis Binding activity (OD450) against Ab (µg/ml); panel Binding to N-terminal of CD73

- EC50 (read off the curve): 0.01 µg/mL
Substance: MEDI-9447 (Medimmune) (antibody)
